According to the supplement of paper PMC12636428:

tested on: Saccharomyces cerevisiae; assay: transcriptional activation domain activity (GFP:mCherry ratio, weighted mean of sorted bins, harmonized to initial dataset scale) (arbitrary fluorescence ratio units); higher = stronger transcriptional activation; details: beta-estradiol 1 µM; induction time 4 h
Description: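 53-aa protein tiles (fungal proteins plus yeast TF control tiles) fused C-terminally to a DBD-estrogen-binding domain-mCherry synthetic TF, integrated in S. cerevisiae (URA3 locus) with a GFP reporter. Cells were induced with 1 uM beta-estradiol for 4 h at 30 C, FACS-sorted into 8 bins by GFP:mCherry ratio and barcodes sequenced. Activity is the read-weighted mean bin fluorescence (GFP:mCherry), averaged over barcodes (median 12); tiles under 50 reads were discarded. New active-learning values were harmonized by linear fit onto the scale of the initial (Hummel et al.) dataset. The assay saturates at low and high signal.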

Sequence | transcriptional activation domain activity
DGKTFDQLLRLKRLLVMHKGNLQSMWCVALMLELWHTKWTELSRLIQQHWGTG | 74200
ASSASTGKGEEEEEDGEEKVRGKGKGQGQGQSQGQGQGQGQEAQERRDDEASA | 31700
KSSKEKDTASVKRGSVESDDTPAAAAAATKGKQLSKDGDADDDSDESDEEKEQ | 33700
SRITSIGVWYLLIQMIWYILFGILYIWFFCQTWESFTVLLVVDYSLRIILCLM | 58100
AYFAQDSEEELMSPTQSITSNLASEENTRCTTKDLMGTVSIFMLPMVEECYNI | 75100
NANADAAAGNANADAGMANAGNNAAAGNANQAKGKGKKKNKAKGKAAGAGAGA | 29500
FWRYRQNQYAYILSYIVGSETSEERISVMRKNGTYHPAPYQFVYLRVRIANLS | 38700
SGSGAEGASGTEHRRRTSTRGRGRGRGRGGRTGRGGRTANDAEGAEGAEADAS | 27900
VHGSSFLVRYFVYITPLVLVILIPLLLGALLFKHASVAGVEMVWFCIWLEIVW | 50100
IQSGDEGKDRKGREKVEDRSKRSRRRSRSRSKDRSRGKRRRDDHEGTKGGGQA | 41100
MLLSLYLLTPFFIDMLLALHPFTLLCVHLPTCPCILLSCFRSYPCLSLWFPFS | 45900
QPQSPYQQAVLPYATIPNSNFQPSSFPVMAVMPPEVQFDGSFLNTLHPHTELP | 34400
EETKEDESSSSPADKENEKPKANTSAKQAKPRGEKKEGAASKGKGGRKQANGT | 33200
MIHSAIIAWYCVFGLVFLLIVICIFHQFSSHRSSPWYFIQNWTRAFGFLSYIL | 66700
MSLLWIYFLSFFPFFCQNLTLLCFYAHIWTLRITPTFVLAFHLVYPLIIHLPV | 27100
ASGAGAVKKAPKSPKAVATAKVGAKAAKPKAGAKATKPKAAKPKAAKAAAAGA | 20900
MYECLAECEFLARLYFFLLHCCVYCTIIVYIFFLLVNCYAGVVSRLLELQTLR | 41100
MIVRLSSVPVSGCSFVVIEALLDFLVLPLRHFNLFIAPTSFFSHLYVFFFFGR | 56700
CKWLGFILLFVPVILSFLFPFLFYSFFSSFVFFFFFFFFVMAVFLFLQSPRSF | 23300
GGEEGRRKEREAGGRGTQKGEEEGDEVGRGGRGRRQREGRERGEARAGAGRRR | 30800
LHLFTNIDILKYDYGHIREDHIWVCLMHFTKRSRVVRWLVKSIYRPLLLGGLR | 77200

Sequence | transcriptional activation domain activity
GGAGKGKGAAAAAAKAAGAARDVEDIVAREPEPHHKGAGGAGKGKGAAAAAAK | 41900
TPFLFYRPLPPQYFCKFLLYYGGLVWWVLYSGFFFYFILGRGYRKIFLSYFCL | 53100
LFSDTSFTIVFSNNVSFTYISFDKKVFFCIFFFLLVYFCQTFSFFLLFFLFFL | 44400
GGIIMAFFLRLNFGLWGICIALFGLRGQAELPLLIHVQRHILSIYVIIPRWFW | 56300
RSGYGSRDLYEYDLIEVRRTQVETALILTGLISLMKTNRSRERYVHTEHVTGT | 39500
EEPKAEEAKAEEAAKEEPKAEESKAEEPKAEEPKAEEPKAEEEPKAEEAAKEE | 7200
VGEWMGGGVGCLAAWLGHGIRIFGGTEYWLVPEFFFPLFLFFSFPPWSLVLFC | 74100
MLSIYNLQTRGIHPPNVVVGMAIFCGGLAHIFLLLFRSWNVGIICSMSCHILL | 66200
AVKKEPTPEEDEEEEEEEPAPKPKARGGRKAKASAAVDADAAQAKPKRGRAKK | 30300
QPSAFGQTNTATNAFGQPQQQSAFGSTPTTGAFGSTNTAFGQNRPAFGSTTTP | 23600
IENFLSPSFLEFIPHLANEYGFDYELVTYKWPTWLIHQKEKQRLIWGYKILFL | 56800
RKGSVAKEMIDGRVGRREKGGQGDNRGRKRTRRGSGERKRSDKKGRREKRNRK | 42300
NVSPGTTDAGPWMRAIEELAGTGVYEHLGYGWKGWLFWLRDRSFCNMLMTGIW | 54200
MVWFWFWLRYLFFFFFLFSKNTLIGLFLLLLLLLHLFLRSLPILLVCASRVFF | 53300
GGGEAQKPRPAAERKKQEANGHAHHDHSQGNHHGHRHKHAKDAKKAEDGGARK | 32500
KEEAESEAEASAPKGKKGTVKKPAAAAKAKDVDEPKAKRGRPKKTVAKDEVEN | < 6570
LAPFLAWLLSLLLQFFVFFLCYNYCTCFFTCLFTCLFCPFRWLQLLLYSIITT | 44000
DEGESAAPADSAAQAQHLDATKKGHYKLSSFISHKGPSVHCGHYVSHIKKGDQ | 51800
IMTKSEQQIVKCVKLMLSSSEKRYRLFNDSFSVIIFRIVDMNYGLRLLNLIID | 56100
WFAKFVVRLVYCLAWVRGQLLRRSSPIQTMMLALRCPHVLPWIDAGTPRLYIY | 54700
MFLEGVLQFVFFFFFFFPVYLSTFIFKFLAVGFLGSYLFLLVQLMQLIHSLIL | 31900

Sequence | transcriptional activation domain activity
MQDGEHEQRLNGRKLALEAENYIIISTRLQKPCIGVVQVLLLLIIMRTISASD | 79600
MAIDCLALHIPTCVNLWGHVLYVQLVTVMYPSHFFFSFYFIFIFILFLFFLFF | 14300
EPRSLPASDLNKITLAPPNEESRMPKSMLELTSYSSDLPPELVDIIPKTDLTV | 58300
MDDALSVKSNDDGTYDVAVHIADVSYFVKPNTALDRDARKRATSVYLIQRAVP | 15900
GPTIRHKMNLFHVYGRRNPHLRLMISLIYVWMRSWGVKEMSPGTLCLLLIRFF | 59800
MHILFLSLFFCFTLRFSLILLFGVIWLVKAFKYCHLVYWKLITYFNLLIFALY | 54800
GAAATPAKPLGFGATSTATTGGLFGNTGAAPAAGGGLFGATATSHQLLVLVAV | 85800
APPAAAAAAAAAPAKKAKKAKKAKKAGLLQKAKKAKKAKKAKKAAAAAAAPAA | 8130
MHIVVTLCYFMTYLKPRRKDIYQRVQRWLPKIWTKFWQEIKRNDSFSYVFVDK | 49500
QLALFRWCAKMCGDVLSARDLVILGCRILLRCLRSYAWDFLFGHLLFALRLVR | 72000
KKGTIMTIASPSTVRRNMYDWLPSLFYFMPNSILGMWFDMTLPKLFFFLFLSQ | 63400
KGRGGGKGRGGGKERGGGKGRGGEGEGEGEGEREGGGRGKERGREGEREGERG | 21800
VRTVIESNRRLNLAVVSKSQRWRCSKIWIPGLLMHVFNFWCIVYMITFNAVWD | 49800
EVYFGLVNRRFRELLLVHERCFDLKVPNYRLMSILLAYLLRHTMVTPKVKYPE | 29700
MYHSIQLGPVVSLLSLALSFIFFFLSPFFFFPFLALSFAPLFVILIFFFISTC | 29000
FTSPLPFALVPLFMYGDAQNWCWFTKQNTLYGIYLWFMWLWILFAFNLVCLFF | 56600
KQYCVRPNSGRIEPGKEVDVQVLLQAMKEDPPLDAKCRDKFLVQSVAVTADKE | 27100
FLLTLLCMEVVLHFDYCVAISKANPDWSKYTPIQLSLLSYFNLHILWLKLLIP | 63400
QVPEQVPEQAPEPEKVAEEIVKEEVKKPEEPKAPTPSPAPVAAPRAAAPPAAE | 29500
